Numbering of substitutions follows the chain as printed.
Assays:
TOK107-hIg [1] = biological target: T1, TOK107-hIg (human); test: ELISA against TOK107-hIg
T1 construct: Expressed in HEK293 cells; Fc mutated at the CH1 cysteine and at lysine 235 and glycine 237 to alanine; also called hGCC-ECD/hIgG1 Fc; TOK107-hIgG

[2] = biological target: T2, human GCC, full length with myc tag (293-GCC#2 cells) (human, UniProt P25092 24-1073); test: cell-based or functional assay
TOK107-hIg [3] = biological target: T1, TOK107-hIg; test: ELISA on coated TOK107-hIg
[4] = biological target: T3, human guanylyl cyclase C (GCC), full length (human, UniProt P25092 24-1073); test: FACS with GCC-expressing cells (cell line not given)
T3 construct: Full length GCC on transfected HT-29 (clones #2, #5, #18) and CT26 (#2.5, #32) cells and endogenous GCC on T84 cells; also called hGCC; STAR
T3 sequence (P25092 24-1073 limits assumed): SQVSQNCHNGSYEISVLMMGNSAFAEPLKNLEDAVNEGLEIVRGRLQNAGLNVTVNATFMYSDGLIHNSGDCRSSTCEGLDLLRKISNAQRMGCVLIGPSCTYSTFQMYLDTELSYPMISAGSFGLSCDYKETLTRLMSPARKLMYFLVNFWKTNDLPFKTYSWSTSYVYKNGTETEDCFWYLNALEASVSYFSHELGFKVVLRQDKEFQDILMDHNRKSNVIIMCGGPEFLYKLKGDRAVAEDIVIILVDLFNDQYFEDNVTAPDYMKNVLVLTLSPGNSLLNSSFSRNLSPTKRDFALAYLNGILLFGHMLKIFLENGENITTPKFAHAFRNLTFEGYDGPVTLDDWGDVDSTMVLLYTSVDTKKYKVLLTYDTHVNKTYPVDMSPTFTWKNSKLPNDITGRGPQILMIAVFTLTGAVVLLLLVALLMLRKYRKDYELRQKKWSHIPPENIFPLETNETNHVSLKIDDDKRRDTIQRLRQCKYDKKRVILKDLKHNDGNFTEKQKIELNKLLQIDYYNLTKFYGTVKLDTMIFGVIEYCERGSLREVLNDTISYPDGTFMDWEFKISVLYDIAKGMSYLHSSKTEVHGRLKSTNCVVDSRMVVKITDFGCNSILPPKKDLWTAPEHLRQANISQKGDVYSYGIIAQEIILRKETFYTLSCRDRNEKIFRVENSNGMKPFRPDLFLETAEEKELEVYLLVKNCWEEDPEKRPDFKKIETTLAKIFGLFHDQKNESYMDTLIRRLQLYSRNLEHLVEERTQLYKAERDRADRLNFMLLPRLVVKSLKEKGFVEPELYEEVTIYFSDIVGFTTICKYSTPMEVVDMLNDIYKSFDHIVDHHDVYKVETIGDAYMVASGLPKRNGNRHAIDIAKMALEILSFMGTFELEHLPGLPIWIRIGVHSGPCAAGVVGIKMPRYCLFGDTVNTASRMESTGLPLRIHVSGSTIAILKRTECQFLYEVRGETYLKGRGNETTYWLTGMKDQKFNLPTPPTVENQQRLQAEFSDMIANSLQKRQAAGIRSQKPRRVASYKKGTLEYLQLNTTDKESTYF

[5] = biological target: T3, human guanylyl cyclase C (GCC), full …; test: FACS with GCC-expressing cells (cell line not given); FACS EC50 on GCC-expressing cells
[6] = biological target: T3, human guanylyl cyclase C (GCC), full …; test: FACS, HT-29#2 cells (full length GCC transfected)
[7] = biological target: T2, human GCC, full length with myc tag …; test: indirect immunofluorescence flow cytometry, 293 GCC #2 cells;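 also: cells exposed to the test antibodies for 1 h on ice before flow cytometric readout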
[8] = biological target: T3, human guanylyl cyclase C (GCC), full …; test: cell-based or functional assay

T1 sequence (chain, as listed by the source limits assumed): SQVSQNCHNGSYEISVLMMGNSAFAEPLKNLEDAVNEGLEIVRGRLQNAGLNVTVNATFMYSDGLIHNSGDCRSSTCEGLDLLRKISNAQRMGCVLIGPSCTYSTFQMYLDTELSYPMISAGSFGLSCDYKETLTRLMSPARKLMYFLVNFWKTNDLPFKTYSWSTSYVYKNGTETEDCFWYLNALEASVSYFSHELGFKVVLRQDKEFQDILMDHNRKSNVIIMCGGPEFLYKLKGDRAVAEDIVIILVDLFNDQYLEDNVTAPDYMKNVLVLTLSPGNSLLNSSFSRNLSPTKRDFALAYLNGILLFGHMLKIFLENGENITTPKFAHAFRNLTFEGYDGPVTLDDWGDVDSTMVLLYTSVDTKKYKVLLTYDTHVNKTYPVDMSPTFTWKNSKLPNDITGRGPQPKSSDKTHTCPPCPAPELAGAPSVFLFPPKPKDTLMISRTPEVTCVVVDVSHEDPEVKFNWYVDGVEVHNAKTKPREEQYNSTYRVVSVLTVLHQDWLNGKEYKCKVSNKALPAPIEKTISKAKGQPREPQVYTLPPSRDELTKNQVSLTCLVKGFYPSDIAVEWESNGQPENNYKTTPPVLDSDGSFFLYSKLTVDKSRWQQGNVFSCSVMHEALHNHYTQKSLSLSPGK
T2 sequence (P25092 24-1073): as the sequence (P25092 24-1073 limits assumed) above

B1: mAb Abx-198 (antibody, IgG1, V domains shown)
VH: EVQLLESGGGLVQPGGSLRLSCAASGFTFSSYAMSWVRQAPGKGLDWVSDISGSGGSTYYADSVKGRFTISRDNSKNTLYLQMHSLSAEDTAIYYCAKRRWQGYFDLWGRGTLVTVSS
VL: EIVLTQSPGTLSLSPGERATLSCRARQRVDSRYLAWYQQKPGQAPRLLIYGASSRATGIPDRFSGSGSGTDFTLTISRLEPEDFAVYYCQQYGSSPLTFGGGTKVEIK
TOK107-hIg [1]
  EC50: 47.7 nM
[2]
  LD50, indirect cytotoxicity with DM1-conjugated mouse anti-human IgG, 293-GCC#2 cells, WST after 4 days: > 5400 pM

B2: mAb Abx-106 (antibody, IgG1, V domains shown)
VH: QVQLQESGPGLVKPSETLSLTCTVSGASISHYYWSWIRQPAGKGLEWIGRIYISGRTSYNPSLKSRVTVSVDTSKNQFSLKLSSVTAADTAVYYCARDRLTGYFDYWGQGTLVTVSS
VL: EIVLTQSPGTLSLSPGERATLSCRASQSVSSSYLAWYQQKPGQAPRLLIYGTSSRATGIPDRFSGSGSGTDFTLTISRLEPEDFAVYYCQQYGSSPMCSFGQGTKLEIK
TOK107-hIg [3]
  binding result: binds
[2]
  LD50, indirect cytotoxicity with DM1-conjugated mouse anti-human IgG, 293-GCC#2 cells, WST after 4 days: 166 pM

B3: mAb Abx-338 (antibody, IgG1, V domains shown)
VH: B2 VH with A27G, S30R, H31S, S58T, Y59F, V69I, Y94F, L100Y, T101Y, F104L
VL: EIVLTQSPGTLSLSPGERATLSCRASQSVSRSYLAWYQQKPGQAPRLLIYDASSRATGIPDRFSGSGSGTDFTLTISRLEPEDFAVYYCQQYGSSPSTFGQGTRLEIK
TOK107-hIg [1]
  EC50: 0.0049 nM
[4]
  EC50: 90 nM
[2]
  LD50, indirect cytotoxicity with DM1-conjugated mouse anti-human IgG, 293-GCC#2 cells, WST after 4 days: 267 pM

B4: mAb Abx-012 (antibody, IgG1, V domains shown)
VH: B2 VH
VL: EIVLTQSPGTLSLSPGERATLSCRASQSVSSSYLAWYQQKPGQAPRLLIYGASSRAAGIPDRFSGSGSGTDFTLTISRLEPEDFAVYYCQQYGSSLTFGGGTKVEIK
notes: also called Abx-12
TOK107-hIg [1]
  EC50: 0.555 nM
[2]
  LD50, indirect cytotoxicity with DM1-conjugated mouse anti-human IgG, 293-GCC#2 cells, WST after 4 days: 279 pM

B5: mAb Abx-393 (antibody, IgG1, V domains shown)
VH: QVQLQESGPGLVKPSETLSLTCTVSGGSIRHYYWSWIRQPPGKGLEWIGYIYYSGSTNYNLSLKSRVTISRDTSKNQVSLKLSSVTAADTAVYYCAAGMGFDYWGQGTLVTVSS
VL: DIQMTQSPSSLSASIGDRVTITCRASQAIRNDLGWYQLKPGKAPKRLIYSASSLQSGVPSRFSGSGSGTEFTLTISSLQPEDSATYYCLQHNSFPPTFGQGTKVEIK
TOK107-hIg [3]
  binding result: binds
[2]
  LD50, indirect cytotoxicity with DM1-conjugated mouse anti-human IgG, 293-GCC#2 cells, WST after 4 days: > 5400 pM

B6: mAb 3G1 (antibody, IgG1, V domains shown)
VH: QVQLKESGPGLVAPSQSLSITCTVSGFSLSRNAISWVRQPPGKGLEWLGVIWTGGGTNYNSALKSRLSIRKENSKSQVFLKMNSLQTEDTARYFCARSGYDGFDYWGQGTLVTVSA
VL: QIVLTQSPAIMSASPGEKVTMTCSASSSVNYMHWYQQKSGTSPKRWIYDTSKLASGVPARFSGSGSGTSYSLTITSMEAEDAATYYCQQWSGNPYTFGGGTKLEIK
TOK107-hIg [1]
  EC50: 22.8 nM
[5]
  EC50: 0.58 nM

B7: mAb Abx-020 (antibody, IgG1, V domains shown)
VH: QVQLVESGGGLVKPGGSLRLSCAASGFTFSDYYMSWIRQAPGKGLEWISYITSSGSTIYYSASVKGRFTISRDNAKNSLYLQMNSLRAEDTAVYYCARDFSGWFGVHFDYWGQGTLVTVSS
VL: DIVMTQTPLSLSVTPGQPASISCKSSQSLLHSDGKTYLYWYLQKPGQPPQLLIYEVSNRFSGVPNRFSGSGSGTDFTLKISRVEAEDVGVYYCMQSIQLTWTFGQGTKVEIK
TOK107-hIg [1]
  EC50: 4.58 nM
[2]
  LD50, indirect cytotoxicity with DM1-conjugated mouse anti-human IgG, 293-GCC#2 cells, WST after 4 days: 569 pM

B8: mAb 8F1 (antibody, IgG1, V domains shown)
VH: QVQLQQPGAELVKPGASVQMSCKASGYIFTGYWMYWVKQRPGQGLEWIGRIHPSDSNTNYNQKFKGKATLTVDKSSSTAYMQLSSLTSEDSAVYYCTHALAYWGQGTLVTVS
VL: DVVLTQTPLTLSITIGQPASISCKSSQSLLYSNGKTYLSWLLQRPGQSPKRLIYLVSQLDSGVPDRFTGSGSGTDFTLKISRVEAEDLGVYYCVQGTHLFTFGSGTKLEIK
TOK107-hIg [3]
  binding result: binds
[6]
  binding result: binds

B9: mAb Abx-221 (antibody, V domains shown)
VH: EVQLLESGGGLVQPGGSLRLSCAASGFTFSRYAMNWVRQAPGKGLEWVSGISGSGGSTYYADSVKGRFTISRDNSKNTLYLQMNSLRAEDTAVYYCAKDRDFWSGPFDYWGQGTLVTVSS
VL: EIVMTPSSATLSVSPGERATLSCRASQSVSRSLAWYQQKPGQAPRLLIYGASTRATGIPARFSGSGSGTEFTLTISSLQSEDVAVYYCQQYNNWMCSFGQGTKLEIK
TOK107-hIg [1]
  EC50: 6.55 nM
[2]
  LD50, indirect cytotoxicity with DM1-conjugated mouse anti-human IgG, 293-GCC#2 cells, WST after 4 days: 207 pM

B10: mAb Abx-229 (antibody, V domains shown)
VH: B9 VH with S57R
VL: B9 VL with S32N, V83F, Q89H, N92S
TOK107-hIg [1]
  EC50: 29.5 nM
[2]
  LD50, indirect cytotoxicity with DM1-conjugated mouse anti-human IgG, 293-GCC#2 cells, WST after 4 days: 78 pM

B11: mAb 6H8 (antibody, IgG2, V domains shown)
VH: QVQLVESGGGVVQPGRSLRLSCAASGFTFSSYGMHWVRQAPGKGLEWVAAIWYDGSNKYYADSVKGRFTISRDNSKNTLYLQMNSLRAEDTAVYYCARGRSSSYFDYWGQGTLVTVSS
VL: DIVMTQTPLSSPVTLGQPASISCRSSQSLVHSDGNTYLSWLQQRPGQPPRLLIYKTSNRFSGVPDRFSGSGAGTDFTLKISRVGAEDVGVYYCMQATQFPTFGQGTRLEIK
TOK107-hIg [3]
  binding result: binds
[2]
  LD50, indirect cytotoxicity with DM1-conjugated mouse anti-human IgG, 293-GCC#2 cells, WST after 4 days: > 4820 pM

B12: mAb 8C2 (antibody, IgG2, V domains shown)
VH: B11 VH with A23V, A49G, D62A, Y94F
VL: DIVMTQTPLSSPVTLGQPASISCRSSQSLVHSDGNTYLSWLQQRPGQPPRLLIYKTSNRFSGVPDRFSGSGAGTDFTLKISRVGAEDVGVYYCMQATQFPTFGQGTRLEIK
TOK107-hIg [3]
  binding result: binds
[2]
  LD50, indirect cytotoxicity with DM1-conjugated mouse anti-human IgG, 293-GCC#2 cells, WST after 4 days: 2040 pM

B13: mAb 10C10 (antibody, IgG2, V domains shown)
VH: B11 VH
VL: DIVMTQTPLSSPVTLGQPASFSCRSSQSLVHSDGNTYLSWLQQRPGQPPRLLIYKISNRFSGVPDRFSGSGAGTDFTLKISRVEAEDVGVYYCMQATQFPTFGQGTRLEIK
[2]
  LD50, indirect cytotoxicity with DM1-conjugated mouse anti-human IgG, 293-GCC#2 cells, WST after 4 days: 2440 pM

B14: mAb 10D3 (antibody, V domains shown)
VH: QVQLQQWGAGLLKPSETLSLTCAVFGGSFSGYYWSWIRQPPGKGLEWIGEINHRGNTNDNPSLKSRVTISVDTSKNQFALKLSSVTAADTAVYYCARERGYTYGNFDHWGQGTLVTVSS
VL: EIVLTQSPGTLSLSPGERATLSCRASQSVSSRYLAWYQQKPGQAPRLLIYGASSRATGTPDRFSGSGSGTDFTLTISRLEPEDFAVYFCQQYERSFTFGPGTKVD
TOK107-hIg [3]
  binding result: binds
[2]
  LD50, indirect cytotoxicity with DM1-conjugated mouse anti-human IgG, 293-GCC#2 cells, WST after 4 days: 1600 pM

B15: 5F9-mc-MMAF (antibody, V domains shown)
VH: B14 VH
VL: EIVMTQSPATLSVSPGERATLSCRASQSVSRNLAWYQQKPGQAPRLLIYGASTRATGIPARFSGSGSGTEFTLTIGSLQSEDFAVYYCQQYKTWPRTFGQGTNVEIK
modifications: mc-MMAF drug-linker on reduced interchain cysteines of the antibody; positions not given
notes: Antibody drug conjugate of 5F9; average loading about four
[7]
  MFI at 0.001 µg/ml: 483
  MFI at 0.004 µg/ml: 776
  MFI at 0.016 µg/ml: 2110
  MFI at 0.063 µg/ml: 5350
  MFI at 0.25 µg/ml: 7400
  MFI at 1 µg/ml: 7580
[8]
  LD50, direct cytotoxicity, CT 26 GCC #2.5 cells: > 10 nM
  LD50, direct cytotoxicity, CT 26 GCC #32 cells: 0.064 nM
  LD50, direct cytotoxicity, HT 29 GCC #2 cells: 3.1 nM
  LD50, direct cytotoxicity, HT 29 GCC #5 cells: > 10000 nM
  LD50, direct cytotoxicity, HT 29 GCC #18 cells: > 10 µM
  LD50, direct cytotoxicity, HT29 GCC#5 cells: > 10 nM

B16: 5F9-vc-MMAE (antibody, V domains shown)
VH: B14 VH
VL: B15 VL
modifications: mc-vc-MMAE drug-linker on reduced interchain cysteines of the antibody; positions not given
notes: Antibody drug conjugate of 5F9
[7]
  MFI at 0.001 µg/ml: 445
  MFI at 0.004 µg/ml: 696
  MFI at 0.016 µg/ml: 1790
  MFI at 0.063 µg/ml: 4850
  MFI at 0.25 µg/ml: 7300
  MFI at 1 µg/ml: 7420
[8]
  LD50, direct cytotoxicity, CT 26 GCC #2.5 cells: > 500 nM
  LD50, direct cytotoxicity, CT 26 GCC #32 cells: 267 nM
  LD50, direct cytotoxicity, HT 29 GCC #2 cells: 24.1 nM
  LD50, direct cytotoxicity, HT 29 GCC #5 cells: 654 nM
  LD50, direct cytotoxicity, HT 29 GCC #18 cells: 0.555 µM
  LD50, direct cytotoxicity, HT29 GCC#5 cells: 0.59 nM

B17: 5F9-vc-MMAF (antibody, V domains shown)
VH: B14 VH
VL: B15 VL
modifications: mc-vc-MMAF drug-linker on reduced interchain cysteines of the antibody; positions not given
notes: as for B15
[7]
  MFI at 0.001 µg/ml: 440
  MFI at 0.004 µg/ml: 707
  MFI at 0.016 µg/ml: 1500
  MFI at 0.063 µg/ml: 4830
  MFI at 0.25 µg/ml: 7560
  MFI at 1 µg/ml: 7780
[8]
  LD50, direct cytotoxicity, CT 26 GCC #2.5 cells: > 10 nM
  LD50, direct cytotoxicity, CT 26 GCC #32 cells: 0.004 nM
  LD50, direct cytotoxicity, HT 29 GCC #2 cells: 0.127 nM
  LD50, direct cytotoxicity, HT 29 GCC #5 cells: 563 nM
  LD50, direct cytotoxicity, HT 29 GCC #18 cells: > 10 µM
